Laboratory results published in publication PMC12855180 (Nature Communications, 2025).
Like-named read-outs stand apart in the source and are kept apart here.

B3: full-length FliD, as in the fusion constructs (natural protein)
chain: MASISSLGVGSNLPLDQLLTDLTKNEKGRLTPITKQQSANSAKLTAYGTLKSALEKFQTANTALNKADLFKSTVASSTTEDLKVSTTAGAAAGTYKINVTQLAAAQSLATKTTFATTKEQLGDTSVTSRTIKIEQPGRKEPLEIKLDKGDTSMEAIRDAINDADSGIAASIVKVKENEFQLVLTANSGTDNTMKITVEGDTKLNDLLAYDSTTNTGNMQELVKAENAKLNVNGIDIERQSNTVTDAPQGITLTLTKKVTDATVTVTKDDTKAKEAIKSWVDAYNSLVDTFSSLTKYTAVEPGEEASDKNGALLGDSVVRTIQTGIRAQFANSGSNSAFKTMAEIGITQDGTSGKLKIDDDKLTKVLKDNTAAARELLVGDGKETGITTKIATEVKSYLADDGIIDNAQDNVNATLKSLTKQYLSVSNSIDETVARYKAQFTQLDTMMSKLNNTSSYLTQQFTAMNKS

What was measured:
[1] = target: FliD D1 domain (FliD^d1) (Salmonella enterica serovar Typhimurium) (UniProt P16328); experiment: NMR titration
[2] = target: FliD D1 domain (FliD^d1) (Salmonella enterica serovar Typhimurium) (UniProt P16328); experiment: NMR titration; remark: listed apart in the source
cryo-EM structure [3] = target: the molecule itself; experiment: cryo-EM structure
cryo-EM structure [4] = target: the molecule itself; experiment: cryo-EM structure; remark: listed apart in the source
cryo-EM structure [5] = target: the molecule itself; experiment: cryo-EM structure; remark: listed apart in the source
[6] = target: B3; experiment: cryo-EM structure
cryo-EM structure [7] = target: the molecule itself; experiment: cryo-EM structure; remark: listed apart in the source
cross-linking = target: the molecule itself; experiment: cross-linking

## FliC, flagellin (unlabeled, for NMR titration) (from UniProt P06179 1-495) (natural protein)
[1]
  Kd: 1650 µM
  stoichiometry N: 1

B1: FlgL, hook-filament junction protein (unlabeled, for NMR titration) (natural protein)
chain: MRISTQMMYEQNMSGITNSQAEWMKLGEQMSTGKRVTNPSDDPIAASQAVVLSQAQAQNSQYALARTFATQKVSLEESVLSQVTTAIQTAQEKIVYAGNGTLSDDDRASLATDLQGIRDQLMNLANSTDGNGRYIFAGYKTEAAPFDQATGGYHGGEKSVTQQVDSARTMVIGHTGAQIFNSITSNAVPEPDGSDSEKNLFVMLDTAIAALKTPVEGNNVEKEKAAAAIDKTNRGLKNSLNNVLTVRAELGTQLSELSTLDSLGSDRALGQKLQMSNLVDVDWNSVISSYVMQQAALQASYKTFTDMQGMSLFQLNR
[2]
  Kd: 100 µM

B2: FliD d0 domain truncation construct (FliD^d1d2d3, residues from 44 to 411) (domain or fragment)
chain: LTAYGTLKSALEKFQTANTALNKADLFKSTVASSTTEDLKVSTTAGAAAGTYKINVTQLAAAQSLATKTTFATTKEQLGDTSVTSRTIKIEQPGRKEPLEIKLDKGDTSMEAIRDAINDADSGIAASIVKVKENEFQLVLTANSGTDNTMKITVEGDTKLNDLLAYDSTTNTGNMQELVKAENAKLNVNGIDIERQSNTVTDAPQGITLTLTKKVTDATVTVTKDDTKAKEAIKSWVDAYNSLVDTFSSLTKYTAVEPGEEASDKNGALLGDSVVRTIQTGIRAQFANSGSNSAFKTMAEIGITQDGTSGKLKIDDDKLTKVLKDNTAAARELLVGDGKETGITTKIATEVKSYLADDGIIDNAQDNV
cryo-EM structure [3]
  stoichiometry N: 5

## B3
cryo-EM structure [4]
  stoichiometry N: 10
cryo-EM structure [5]
  stoichiometry N: 5

B4: FliC D1D2D3 (residues 45-455), as in the FliD-FliC fusion (domain or fragment)
chain: AAGQAIANRFTANIKGLTQASRNANDGISIAQTTEGALNEINNNLQRVRELAVQSANSTNSQSDLDSIQAEITQRLNEIDRVSGQTQFNGVKVLAQDNTLTIQVGANDGETIDIDLKQINSQTLGLDTLNVQQKYKVSDTAATVTGYADTTIALDNSTFKASATGLGGTDQKIDGDLKFDDTTGKYYAKVTVTGGTGKDGYYEVSVDKTNGEVTLAGGATSPLTGGLPATATEDVKNVQVANADLTEAKAALTAAGVTGTASVVKMSYTDNNGKTIDGGLAVKVGDDYYSATQNKDGSISINTTKYTADDGTSKTALNKLGGADGKTEVVSIGGKTYAASKAEGHNFKAQPDLAEAAATTTENPLQKIDAALAQVDTLRSDLGAVQNRFNSAITNLGNTVNNLTSARSRIE
[6]
  stoichiometry N: 1

B5: native FliD of the flagellar tip (natural protein)
chain: MASISSLGVGSNLPLDQLLTDLTKNEKGRLTPITKQQSANSAKLTAYGTLKSALEKFQTANTALNKADLFKSTVASSTTEDLKVSTTAGAAAGTYKINVTQLAAAQSLATKTTFATTKEQLGDTSVTSRTIKIEQPGRKEPLEIKLDKGDTSMEAIRDAINDADSGIAASIVKVKENEFQLVLTANSGTDNTMKITVEGDTKLNDLLAYDSTTNTGNMQELVKAENAKLNVNGIDIERQSNTVTDAPQGITLTLTKKVTDATVTVTKDDTKAKEAIKSWVDAYNSLVDTFSSLTKYTAVEPGEEASDKNGALLGDSVVRTIQTGIRAQFANSGSNSAFKTMAEIGITQDGTSGKLKIDDDKLTKVLKDNTAAARELLVGDGKETGITTKIATEVKSYLADDGIIDNAQDNVNATLKSLTKQYLSVSNSIDETVARYKAQFTQLDTMMSKLNNTSSYLTQQFTAMNKS
cryo-EM structure [7]
  stoichiometry N: 5

B6: native FlgL of the hook-filament junction tip (natural protein)
chain: MRISTQMMYEQNMSGITNSQAEWMKLGEQMSTGKRVTNPSDDPIAASQAVVLSQAQAQNSQYALARTFATQKVSLEESVLSQVTTAIQTAQEKIVYAGNGTLSDDDRASLATDLQGIRDQLMNLANSTDGNGRYIFAGYKTEAAPFDQATGGYHGGEKSVTQQVDSARTMVIGHTGAQIFNSITSNAVPEPDGSDSEKNLFVMLDTAIAALKTPVEGNNVEKEKAAAAIDKTNRGLKNSLNNVLTVRAELGTQLSELSTLDSLGSDRALGQKLQMSNLVDVDWNSVISSYVMQQAALQASYKTFTDMQGMSLFQLNR
cryo-EM structure [7]
  stoichiometry N: 11

B7: FliD^2C (A91C/A168C) (natural protein)
chain: MASISSLGVGSNLPLDQLLTDLTKNEKGRLTPITKQQSANSAKLTAYGTLKSALEKFQTANTALNKADLFKSTVASSTTEDLKVSTTAGACAGTYKINVTQLAAAQSLATKTTFATTKEQLGDTSVTSRTIKIEQPGRKEPLEIKLDKGDTSMEAIRDAINDADSGICASIVKVKENEFQLVLTANSGTDNTMKITVEGDTKLNDLLAYDSTTNTGNMQELVKAENAKLNVNGIDIERQSNTVTDAPQGITLTLTKKVTDATVTVTKDDTKAKEAIKSWVDAYNSLVDTFSSLTKYTAVEPGEEASDKNGALLGDSVVRTIQTGIRAQFANSGSNSAFKTMAEIGITQDGTSGKLKIDDDKLTKVLKDNTAAARELLVGDGKETGITTKIATEVKSYLADDGIIDNAQDNVNATLKSLTKQYLSVSNSIDETVARYKAQFTQLDTMMSKLNNTSSYLTQQFTAMNKS
cross-linking
  stoichiometry N: 5
